According to the nanobody polyreactivity screen of Harvey et al. (2022):

Experiment: yeast display, Sf9 membrane polyspecificity reagent, FACS + sequencing; frameworks hold sequencing errors
Procedure, shortened: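 Galactose induction of a Saccharomyces cerevisiae BJ5465 synthetic nanobody display library ran 36–48 hours. The cells were then stained for 1 hour at 4 °C with 10% biotinylated, detergent-solubilized Sf9 membrane reagent, pulled down on streptavidin microbeads and FACS-sorted into low and high (top ~1%) gates on expression and reagent-binding fluorescence. Labels for polyreactivity follow the gate of origin.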

Sequence | polyreactivity (PSR sort gate)
QVQLVESGGGLVQAGGSLRLSCAASGFIFTKNTMGWYRQAPGKEREWVAAISRGGSTYYADSVKGRFTISRDNAKNTVYLQMNSLKPEDTAVYYCAALYNSTKYGVYTNGPQAEYDYWGQGTQVTVSS | high polyreactivity
QVQLVESGGGLVQAGGSLRLSCAASGLTLAPYAMGWYRQAPGKERELVAAITFSGGSTYYADSVKGRLSISRDNAKNTVYLQMNSLKPEDTAVYYCARDTWAYKNGYPYYSWGQGTQVTVSS | low polyreactivity
QVQLVESGGGLVQAGGSLRLSCADSGYTFLDYAMGWYRQAPGKERELVAAINSGGSTYYADSVKGRFTISRDNAKNTVYLQMNSLKPEDTAVYYCAREDYVSYRLLYSLFDYWGQGTQVTVSS | low polyreactivity
QVQLEESGGCLVQEGGSLRLSCAASGIIFTSNTLGWYRQAPGKEREFVASINWNGSSTYADSVKGRFTISRDNAKNTVYLQMNSLKPEDTAVYYCNADYNRNSVQFSLYDYWGQGTQVTVSS | low polyreactivity
QVQLVESGGGLVQAGGSLRLSCAASGSTFNTYAMGWYRQAPGKERELVAAITWRGGRTYYADSVKGRFTISRDNAKNTVYLQMISLKPEDTAVYYCNTLRPRLDGVYGYDYWGQGSQVTVSS | high polyreactivity
QVQLVESGGGLVQAGGSLRLSCAASGSTFRSYAMGWYRQSPGNERELVAAISYSGDSTYYADSVKGRFTISSDNAKNTVYLQMNSLKPEDTAVYYCAALRDWDIQCEPWKRYGYWGQGTQVTVSS | low polyreactivity
QVQLVESGGGLVQAGGSLRLSCAASGSIFATNTMGWYRQSPGKERELVATISSSDSTNYADSVKGRFTISRDNAKNTVYLEMNSLKPVDTAVYYCNKAYVDSTHGSYRWTYDYWGQGTQVTVSS | low polyreactivity
QVQLVESGGGLVQAGGSLRLSCAASGSTYRGYAMGWYRQAPGKERELVAAISWTGGSTYNADSVKGRYTISRDNAKNTVYLQMNSLKPEDTAVYYCNTYVKDWGGYSYRYRYYYWGQGTQVTVSS | high polyreactivity
QVQLVESGGGLVQAGGSLRLSCAASGFTFGRYAMGWYRQAPGKEREFVAAITWSGGGTYYADSVKGRFTISRDNAKNTVYLQMNSLKPEDTAVYYCAADRRAYGGGYWGQRTQVTVSS | high polyreactivity
QVQLVESGGGLVQAGGSLRLSCAASGNIFYRNAIGWYRQAPGKERELVAAIRGGGSTNYADSVKGRFTISRDNAKNTVYLQMNSLKPEDTAVYYCNTVRSPPGHDYWGQGTQVTVSS | low polyreactivity
QVQLVESGGGLVQAGGSLRLSCAASGYTFSHYAMGWYRQAPGKERELVAGITWSGGSTYYADSVKGRFTISRENSKNTVYLQMNSLKPEDTSVYYCAAKYYWYYSYSGIPLFDYWGQGTQVTVSS | low polyreactivity
QVQLVESGGGLVQAGGSLRLSCAASGFIFGQYAMGWYRQAPGKERELVAAISWSGGRTNYADSVKGRFTISRDNAKYTVYLQMNSLKPEDTAVSYCAARKGKYPQYTYGYWGQGTQVSVSS | high polyreactivity
QVQLVESGGGLVQAGGSLSLSCAATGRLFSWYTMGWYRQAPGKERELVAAISWSGTSTYYADSVKGRFTISRDNAKNTVYLQMNSLKPEDTAVYYCNKVNPANIRRSYDYWGQGTQVTVSS | high polyreactivity
QVQIVESGGGLVQARGSLRLSCAASGRTFYGYALGWYRQAPGKERELVASIRSRTGSTYYADSVKGRFTISRDNAKNTVYLLMNILKPEDTAVYYCARPYYAKGFAFDYWGLGTQVTVSS | high polyreactivity
QVQLVESGGGLVQAGGSLRLSCAASGFTFHPNSMGWYRQAPGKERELVASISSRGGSTYYADSVKGRFTISRDNAKNTVYLQMNSQKPEYTAVYYCNVRGTQYYGHIGFYYWGQGTQVTVSS | low polyreactivity
QVQLVESGGGLVQAGGSLRLRCAASGSIFTDYAMGGYRQAPGKERELVAVIDIDGSTYYADSVKGRFTISRDNAKNTVYLQMNSLKPEDTAVYDCAAGYTYYSLYGYWGQGTQVTGSS | low polyreactivity
QVQLVESGGGLVQAGGSLRLSCAASGRTFYYYAMGWYRQAPGKERELVAAIRWSTGSTYYADSVKGRFTISRDNAKNTVYLQMNSLKPEDTAVYYCAADTWYIQWGYYWGQGTQVTVSS | low polyreactivity
